T1: Astn1 P1268L (control peptide) peptide on HLA-A*02:01 (human)
T1 peptide: KLYGLDWAEL

T2: HA-1^R (minor histocompatibility antigen 1, HMHA1 gene, R allele) peptide on HLA-A*02:01 (human)
T2 peptide: VLRDDLLEA

T3: HA-1^H (minor histocompatibility antigen 1, HMHA1 gene, H allele) peptide on HLA-A*02:01 (human)
T3 peptide: VLHDDLLEA

B1: TCR_3 (TCR, V domains shown)
Valpha: SQQGEEDPQALSIQEGENATMNCSYKTSINNLQWYRQNSGRGLVHLILIRSNEREKHSGRLRVTLDTSKKSSSLLITASRAADTASYFCATGDQTGANNLFFGTGTRLTVIP
Vbeta: DTGVSQNPRHKITKRGQNVTFRCDPISEHNRLYWYRQTLGQGPEFLTYFQNEAQLEKSRLLSDRFSAERPKGSFSTLEIQRTEQGDSAMYLCASSLTRTEKLFFGSGTQLSVL
B2: TCR_6 (TCR, V domains shown)
Valpha: GEDVEQSLFLSVREGDSSVINCTYTDSSSTYLYWYKQEPGAGLQLLTYIFSNMDMKQDQRLTVLLNKKDKHLSLRIADTQTGDSAIYFCAEKWIIFGKGTRLHILP
Vbeta: B1 Vbeta with R98T, T99P, E100D, K101G, L102Y, F103T, Q109R, S111T, L113V
B3: TCR_5 (TCR, V domains shown)
Valpha: TQLLEQSPQFLSIQEGENLTVYCNSSSVFSSLQWYRQEPGEGPVLLVTVVTGGEVKKLKRLTFQFGDARKDSSLHITAAQTGDTGLYLCAGAGNNDMRFGAGTRLTVKP
Vbeta: B1 Vbeta with T97V, T99G, E100I, K101E, L102A, S106Q, Q109R, S111T, L113V
B4: TCR_4 (TCR, V domains shown)
Valpha: GENVEQHPSTLSVQEGDSAVIKCTYSDSASNYFPWYKQELGKGPQLIIDIRSNVGEKKDQRIAVTLNKTAKHFSLHITETQPEDSAVYFCAGRGKLTFGTGTRLTIIP
Vbeta: B1 Vbeta with T97V, T99D
B5: TCR_1 (TCR, V domains shown)
Valpha: GENVEQHPSTLSVQEGDSAVIKCTYSDSASNYFPWYKQELGKGPQLIIDIRSNVGEKKDQRIAVTLNKTAKHFSLHITETQPEDSAVYFCAASDLNFGKGTSLLVTP
Vbeta: DTGVSQNPRHKITKRGQNVTFRCDPISEHNRLYWYRQTLGQGPEFLTYFQNEAQLEKSRLLSDRFSAERPKGSFSTLEIQRTEQGDSAMYLCASSLVSRVDGYTFGSGTRLTVV
B6: TCR_2 (TCR, V domains shown)
Valpha: GENVEQHPSTLSVQEGDSAVIKCTYSDSASNYFPWYKQELGKGPQLIIDIRSNVGEKKDQRIAVTLNKTAKHFSLHITETQPEDSAVYFCAAHTPGYSTLTFGKGTMLLVSP
Vbeta: DTGVSQNPRHKITKRGQNVTFRCDPISEHNRLYWYRQTLGQGPEFLTYFQNEAQLEKSRLLSDRFSAERPKGSFSTLEIQRTEQGDSAMYLCASSPRAGGETQYFGPGTRLLVL
B7: TCR_3, P01849 1-136 (TCR, not shown: a dimerising Fc or GST)
TCR alpha: SQQGEEDPQALSIQEGENATMNCSYKTSINNLQWYRQNSGRGLVHLILIRSNEREKHSGRLRVTLDTSKKSSSLLITASRAADTASYFCATGDQTGANNLFFGTGTRLTVIPYIQNPEPAVYQLKDPRSQDSTLCLFTDFDSQINVPKTMESGTFITDKTVLDMKAMDSKSNGAIAWSNQTSFTCQDIFKETNATYPSSDVPCDATLTEKSFETDMNLNFQNLSVMGLRILLLKVAGFNLLMTLRLWSS
TCR beta: DTGVSQNPRHKITKRGQNVTFRCDPISEHNRLYWYRQTLGQGPEFLTYFQNEAQLEKSRLLSDRFSAERPKGSFSTLEIQRTEQGDSAMYLCASSLTRTEKLFFGSGTQLSVLE
B8: TCR_5, P01849 1-136 (TCR, not shown: a dimerising Fc or GST)
TCR alpha: TQLLEQSPQFLSIQEGENLTVYCNSSSVFSSLQWYRQEPGEGPVLLVTVVTGGEVKKLKRLTFQFGDARKDSSLHITAAQTGDTGLYLCAGAGNNDMRFGAGTRLTVKPNIQNPEPAVYQLKDPRSQDSTLCLFTDFDSQINVPKTMESGTFITDKTVLDMKAMDSKSNGAIAWSNQTSFTCQDIFKETNATYPSSDVPCDATLTEKSFETDMNLNFQNLSVMGLRILLLKVAGFNLLMTLRLWSS
TCR beta: B7 TCR beta with T97V, T99G, E100I, K101E, L102A, S106Q, Q109R, S111T, L113V
B9: TCR_6, P01849 1-136 (TCR, not shown: a dimerising Fc or GST)
TCR alpha: RGEDVEQSLFLSVREGDSSVINCTYTDSSSTYLYWYKQEPGAGLQLLTYIFSNMDMKQDQRLTVLLNKKDKHLSLRIADTQTGDSAIYFCAEKWIIFGKGTRLHILPNIQNPEPAVYQLKDPRSQDSTLCLFTDFDSQINVPKTMESGTFITDKTVLDMKAMDSKSNGAIAWSNQTSFTCQDIFKETNATYPSSDVPCDATLTEKSFETDMNLNFQNLSVMGLRILLLKVAGFNLLMTLRLWSS
TCR beta: B7 TCR beta with R98T, T99P, E100D, K101G, L102Y, F103T, Q109R, S111T, L113V
B10: TCR_4, P01849 1-136 (TCR, not shown: a dimerising Fc or GST)
TCR alpha: GENVEQHPSTLSVQEGDSAVIKCTYSDSASNYFPWYKQELGKGPQLIIDIRSNVGEKKDQRIAVTLNKTAKHFSLHITETQPEDSAVYFCAGRGKLTFGTGTRLTIIPNIQNPEPAVYQLKDPRSQDSTLCLFTDFDSQINVPKTMESGTFITDKTVLDMKAMDSKSNGAIAWSNQTSFTCQDIFKETNATYPSSDVPCDATLTEKSFETDMNLNFQNLSVMGLRILLLKVAGFNLLMTLRLWSS
TCR beta: B7 TCR beta with T97V, T99D
B11: TCR_1, P01849 1-136 (TCR, not shown: a dimerising Fc or GST)
TCR alpha: GENVEQHPSTLSVQEGDSAVIKCTYSDSASNYFPWYKQELGKGPQLIIDIRSNVGEKKDQRIAVTLNKTAKHFSLHITETQPEDSAVYFCAASDLNFGKGTSLLVTPHIQNPEPAVYQLKDPRSQDSTLCLFTDFDSQINVPKTMESGTFITDKTVLDMKAMDSKSNGAIAWSNQTSFTCQDIFKETNATYPSSDVPCDATLTEKSFETDMNLNFQNLSVMGLRILLLKVAGFNLLMTLRLWSS
TCR beta: DTGVSQNPRHKITKRGQNVTFRCDPISEHNRLYWYRQTLGQGPEFLTYFQNEAQLEKSRLLSDRFSAERPKGSFSTLEIQRTEQGDSAMYLCASSLVSRVDGYTFGSGTRLTVVE
B12: TCR_2, P01849 1-136 (TCR, not shown: a dimerising Fc or GST)
TCR alpha: GENVEQHPSTLSVQEGDSAVIKCTYSDSASNYFPWYKQELGKGPQLIIDIRSNVGEKKDQRIAVTLNKTAKHFSLHITETQPEDSAVYFCAAHTPGYSTLTFGKGTMLLVSPDIQNPEPAVYQLKDPRSQDSTLCLFTDFDSQINVPKTMESGTFITDKTVLDMKAMDSKSNGAIAWSNQTSFTCQDIFKETNATYPSSDVPCDATLTEKSFETDMNLNFQNLSVMGLRILLLKVAGFNLLMTLRLWSS
TCR beta: DTGVSQNPRHKITKRGQNVTFRCDPISEHNRLYWYRQTLGQGPEFLTYFQNEAQLEKSRLLSDRFSAERPKGSFSTLEIQRTEQGDSAMYLCASSPRAGGETQYFGPGTRLLVLE

Positions count from the first letter of the chain named. Some results are limits rather than exact numbers.

The first assay deals with T1, Astn1 P1268L (control peptide) peptide …. As to the kind of experiment: cytokine release.
Take B1: the binding result was “no recognition”.

As to B2, the binding result is “no recognition”.

On to B3, for which the binding result is “no recognition”.

Regarding B4, the binding result is recorded as “no recognition”.

With B5, the binding result is given as “no recognition”.

Consider B6, for which the binding result is on record as “no recognition”.

Another assay concerns the target T2, HA-1^R (minor histocompatibility …). Nature of the assay: cytokine release.
With B6, the binding result is reported as “no recognition”.

A further assay has as its target T3, HA-1^H (minor histocompatibility …). As to the kind of experiment: killing.
With B2, the binding result was “recognises”.

The target in a further assay is HA-1^R-peptide (…) loaded on HLA-A*02:01 encoded molecules on T2 cells (human). As to the kind of experiment: cell-based or functional assay.
Molecule B7 registered a peptide concentration needed for recognition (IFN-γ release), relative to HA-1^H of over 10000 times.

Molecule B8 had a peptide concentration needed for recognition (IFN-γ release), relative to HA-1^H of over 10000 times.

B9: the peptide concentration needed for recognition (IFN-γ release), relative to HA-1^H was over 10000 times.

In turn, B10 came in with a peptide concentration needed for recognition (IFN-γ release), relative to HA-1^H of over 10000 times.

B11 came in with a peptide concentration needed for recognition (IFN-γ release), relative to HA-1^H of over 10000 times.

Molecule B12 registered a peptide concentration needed for recognition (IFN-γ release), relative to HA-1^H of over 10000 times.

In a further assay the target is T3, HA-1^H (minor histocompatibility …). As to the kind of experiment: multimer staining. The text has this:
Transduced CD8 T cells were enriched by FACS using the murine constant beta region as a marker for transduction. After expansion of these cells, they were stained with an HA-1^H-MHC-multimer and antibodies against CD8 and the murine constant beta region (mCb) and analyzed by flow cytometry.
The nucleotide sequences of the isolated TCRs were codon optimized using the GeneOptimizer™ algorithm (ThermoFisher) and the constant regions were murinized. Codon optimized and murinized TCRs were used for all further experiments described herein. They were stained with an HA-1^H-MHC-multimer (immunAware) and antibodies against CD8 and the murine constant beta region. […] (FIG. 1)
For B1, the binding result is reported as “recognises”.

Take B3: the binding result is “recognises”.

As for B4, the binding result is recorded as “recognises”.

Turning to B5, the binding result was “recognises”.

As for B6, the binding result was “recognises”.

The values above are taken from patent US20210300987A1 (published 2021).
